Several values for one entry are separate records, joined by “and”; a condition that tells them apart may be missing. Equal entries are not always repeated.
B1: Superoxide dismutase [Mn], mitochondrial, P04179 (parent)
chain: MLSRAVCGTSRQLAPVLGYLGSRQKHSLPDLPYDYGALEPHINAQIMQLHHSKHHAAYVNNLNVTEEKYQEALAKGDVTAQIALQPALKFNGGGHINHSIFWTNLSPNGGGEPKGELLEAIKRDFGSFDKFKEKLTAASVGVQGSGWGWLGFNKERGHLQIAACPNQDPLQGTTGLIPLLGIDVWEHAYYLQYKNVRPDYLKAIWNVINWENVTERYMACKK

Variants of: B1
Settings: Homo sapiens; pH 7.8; 88.9 °C; Thermal; DSC; potassium phosphate 2 mM; transition: 2; reversible: Yes; structure 1N0J; whole UniProt chain shown

| Variant | ddG of mutation (higher = less stable) [kJ/mol] |
| --- | --- |
| Y58F | -13 |

Same assay, conditions: Homo sapiens; pH 7.8; Thermal; DSC; potassium phosphate 2 mM; transition: 2; reversible: Yes; structure 1N0J; whole UniProt chain shown

| Variant | unfolding enthalpy (calorimetric) |
| --- | --- |
| Y58F | 1470 kJ/mol and 824 kJ/mol |

Source: FireProtDB (doi:10.1021/bi972394l)
